# Article PMC6746865, “Identification of telomerase RNAs in species of the Yarrowia clade provides insights into the co-evolution of telomerase, telomeric repeats and telomere-binding proteins”
# T1: Tay1p (YlTay1p) (Yarrowia lipolytica, UniProt Q6C9I6 1-406)
# T1 sequence: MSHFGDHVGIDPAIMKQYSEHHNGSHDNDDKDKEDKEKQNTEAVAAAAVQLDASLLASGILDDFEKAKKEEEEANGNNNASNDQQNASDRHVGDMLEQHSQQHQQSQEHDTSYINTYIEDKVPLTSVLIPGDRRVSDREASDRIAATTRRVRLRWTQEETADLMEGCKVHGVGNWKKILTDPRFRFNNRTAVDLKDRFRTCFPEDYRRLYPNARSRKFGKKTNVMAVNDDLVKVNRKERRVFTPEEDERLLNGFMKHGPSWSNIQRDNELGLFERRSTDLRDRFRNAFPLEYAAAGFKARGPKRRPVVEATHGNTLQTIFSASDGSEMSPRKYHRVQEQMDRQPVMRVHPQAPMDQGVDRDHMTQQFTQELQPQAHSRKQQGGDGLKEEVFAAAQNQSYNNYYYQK
# B1: Y. lipolytica telomeric probe YlipTEL (2 repeats) (dsDNA)
# DNA 1: TTAGTCAGGGTTAGTCAGGG
# DNA 2: CCCTGACTAACCCTGACTAA
# Target: T1, Tay1p (YlTay1p)
# Assay: EMSA; 20 mM HEPES-NaOH pH 7.3, 100 mM NaCl, 16 nM dsDNA probe (3-fold molar excess of unlabelled C strand used in annealing), 10 min at room temperature; 6% PAGE in cold 0.5x TBE
# Details: protein: recombinant; label: 5'-32P on G strand; blunt
binder,measurement,value
B1,binding result,binds
